# B1: 874 (protein)
# chain: MSEQTSSSTYPSVNDLSLEEKASLTSGGDAWHLQPIEERGIPGYMITDGPHGLRKTAGDTGAIDLEHTVPATCFPPAAGMSSTWNPELVEEVGQAMAEECIQEKVAVILGPGVNIKRNPLGGRCFEYWSEDPYLAGHEAVGIVKGVQSKGVGTSLKHFAVNNQETDRLRIDARVSQRALREIYLPAFEHIVKTAQPWTVMCAYNRINGVYAAQNRWLLTDVLRKEWGFKGIVMSDWGADHDRVASLNAGLNLEMPPSFTDDQIVSAARDGRISPKQLDDMAQGMIGLVNKTRQAMSVEDYRFDAQVHDDIARRAAAESMVLLKNDEHILPLSKNARVAVIGEFARTPRYQGGGSSHITPTQLTSLLDALQQRGIEYDFAPGFTLEDGEQEQSLVDEAVNIASKADAVVMCLGLPEYAESEGFDRTSLDIPAKQLELLSKVRESNANVVVLLSNGSVVSLTPWQDQAKAVVETWLLGQSGGGAIADMLFGDVNPSGKLSQTIPLNILDDPSMLNWPGEEGHVDYGEGVFVGYRYYDTYAKEVAYPFGFGLSYSDFSIDNVSVERTGANTACVRATVTNVSQTAGAQTVQIYVAPGRSEVARPVHELKGFAKVFLEAGESKEISIDLDERAFAYWSERFNDWHIEAGTYGIEVATSSRDIVERLDIELEGDGKSLPLNEWSNMSEWRKDPVGGPIVKRMFEEGRDGRIPALPENNLGAELFLDAMPINSMSVLLGKDGKVLTQFLLDEYAKETDGLH
# modifications: Bifidobacterium tsurumiense
# B2: 825 (protein, listed as Bifidobacterium bohemicum)
# chain: MSEQNSERKATLPQAKDLSVEEQSALTSGTNPWSIGRVEGKGLPNYTITDGPHGLRKARDLDGMDVDAAVPATCFPPAAGMSSSWNPELIKKTGEAMGEECVQEQVAVILGPGVNIKRNPLGGRCFEFWSEDPYLAGHEAIGEVEGIQSKGIGTSLKHFAANNQETDRLRVNARISERAMREIYLPAFEHIIKNAQPWTVMCSYNRINGEYASQNSWLLTDVLRKEWGFKGIVMSDWGAVHDRAAALNAGLNLEMPPTHTDDKIVQAVRDGQVKPEQLEAMSQGMIDLVAKTQPAMEKGAAGYRYDVDEHDEIAREAAREAMVLLKNEDGLLPVKPGTKLAVIGEFARTPRYQGAGSSLINPNKLTSFLDALKDRGVEAEFAPGFTLDGDEQSQELTDEAVNAAESADTVLLFIGLPAEAESEGFDRTTLDIPAKQIEVLKAVSAVNKNVVVILSNGSVVSMPWADQAKSILECWLLGQAGGAATADVVFGDVNPSGKLAQTIVNNLDDDPSMLNWPGEEGHVDYGEGVFVGYRYYDSFHKAVTYPFGYGLSYTTFDISEVNAQKSGPQSVHVTAMVTNTGSMAGAEVVQVYVAPPACRVDRPVHELKAFKKVFLEPGQSQEVSFDLDSRAFAYWSERFEDWKVEGGSYGIEVGDSSRSIAQTVPVQLDDDGKRMKLTKWSTYGEWREDPDGNKILDKVISELEAKYGHAIIPDSQLIIMFLKSAPLGGMSMVLGANEAQDICERALAEYAKIGR
# B3: 824 (protein, listed as Pestalotiopsis fici)
# chain: MMTTDIEAVLKSLTLEEKISLLAGQNFWETVPVPGKVPHIKTSDGPNGARGADFTGGTRAACFPAASNVAATFDLDIANRIGQALAEETQSKGARCLLAPTTCIHRHPLGGRNFESFSEDPLLSGKLASQVIQGVQSKGVAATIKHFAANEQETERMSVDETISERALREIYLRPFEIAVKEAKPWAVMTAYNCVNGEHCDSNAFNFKVLREEWGWKGLVMSDWGGTNSTAEALNAGLDLEMPGPTNRRKIPDVLAAIKEGKTTERAIDDRARAVLEFIDRLKAFEDPTIPPEQAINKPEHQALIREAGAKGCVLLKNDNGVLPLSKDKVKGKKVAVFGLAKTPLAHGGGSASVNAHYKIAPWDALQEAVGDSAELVYSQGAHTQRILLPIGEDKSAGSIVGLDGKPGFTLQVFDNATQAIEETTHGHPSSSISPLGSKATLYKILEFVGDFTPTESGSHYLGCTGLGLTQVYVNDKLVYDQQKASPDAMGFLFGAISEDEFTYPFTAGNAYRIRVRSLPPIDVPGLEILNGRSGVRLGLQLASEHDADLQGEAVALAKDADYALVFTGHDPQWETEGQDQESFNLPRKGTQDALISAVAKVNPNTVVINSTGVAIALPWLEQVSSLVHAGFPGQECGNSIVDVITGAVNPEGRLPMSFPKRLEDAPAYGNFPGEYVNGQLKVEYKEGVFVGYRHYDRIGRDKVNFAFGHGLSYTTFATDSLRVSRKSETEFSASVNVTNTGKTQGGTLVQLYAGNATTSPEHPIKGLVAFKKIRLEPGQTQTVDLAVAARDLGFFDESRGQWVVPAGQYDFSLGESALDIIQTVKVAVEKELTSAP
# B4: 823 (protein, listed as Streptomyces fulvissimus)
# chain: MAAASSTSNSKALRREAVDTALAALGLDDKTRLLAGQDLWSLPALPAIGLRSLVMSDGPIGVRGVRWTAADPSVALPSPTALAATWDPELARRAGRLLAQEARRKGVHVLLAPTVNLHRTPLGGRHFEAYSEDPYLTGEIGTGYVRGVQDGGVATTVKHFVANDAETDRFTVNNTVAPRPLRELYLAPFERIVRNAHPWGIMAAYNQVNGSTMTEHRYLQNAVLRGEWGFDGFIVSDWLAARTTVGAITGGLDAAMPGPRTVYGETLADAVRAGEVDEKIVDLAVRNILLLAARVGALESAPPAVPAAALPATVDGDALAREIARRSFVLVRNEVHDGADALPLAPGTTVALSGALARDARVLGGGSALVFPDHVVSPLDGLTAALPEGALTYAVGADPSDELAIAEAGFDLTAVCRDASGAVLATVPLPSGQIQWIGADLPDGVTHDTLDTVEITGTFTPRASGEHTFGTRGTGSFALTVDDRPLFDGTQDRAPGTDPLGAFFNEPVERGRLPLTEGAPVRVSLSHRPGPGTGHPLKGVAFSLVHLAPLRDPDELIAEAVEAARSADTAIVVVGTTERVESEGFDRTDLKLPGHQDALVHAVAAVNPRTVVVVNSGSPVELPWRNEVAAVLLSWFPGQEAGHALADVLRGQEEPGGRLPTTWPVALADVPVSATTPTNGELPYTEGVFIGYRAWEKAGTTPAYAFGHGLGYTTWEYEDVSATPDSVTVRVRNTGSRPGSDTVQIYLAPAPAPDAPERPARWLAGFARVTAAPGGSVEVTVPVEARAYQVWDEEAYGWKTVPGTYEVQAARSLADVRATTTVDITA
# B5: 810 (protein, listed as Cutibacterium avidum)
# chain: MTPAEITDLISQLTLEEKASLCSGGDSWHLQTVEKLGIPGPMVTDGPHGLRKVADGSMAGIYDSVPATCFPTAAGLASTWDPELVHDIGVALGEETRAESVSVLLGPGINMKRSPLCGRNFEYFSEDPVLAGTLATELVRGIQSQGVGTSLKHFAANNQETDRLRVNAEIDERTLREIYLPAFEMVVKQADPWTVMCSYNAINGVYSSQNRWLLTELLHEEWGYKGLVISDWGAVVNRVEGLRAGLDLEMPGDAPRNDARIVEAVRSGDLDEEILDTAVARILSLIARASAAMADPGSYDIEAHHQLARRAAAASVVLLKNDGDVLPLIDPDDVVVIGEFARTPRYQGAGSSKVNPTRVDTALDSLRQTWDDVPFAPGFTLTDHPDPQLADEAVSLSRGKTAVLFLGLPAVAESEGYDRTNTDLPTDQIDLLARVRKVASHTIVVLSNGSSVGTAEWDDQADAIVECWLGGQASGSGVIDVLTGKVNPSGHLAETITRKLSDIPAQLNFPGEFQHVTYGEGRYIGYRGLDATEREVAYPFGHGLSYTTFAYCDLDLLVRPVSDETAQDETVLTVSFTVSNTGDRAGATVPQVYLGFPDATVDRCVRELKAFLRVELDPGESRSITIDLTRRDLSYWDILLHSWTVEPGTVRVEVGISSRDLPLTGEVILDAPTVRHPLRRDSTVAEWMDADEEFAAKVRRATEQTGIDLDSDPTTAAFILAMPAYKMLQMAPIMTPEELDKMLGD
# B6: 894 (protein, listed as Microbacterium sp.)
# chain: MSDSVAQPSVTDLTLEEKASLTSGADFWTTTAIDRAGVPSIMMTDGPHGLRKQADGNDHVGLANSVPATCFPPAVGLSATFDPELAVRVGEALGVESAIENVAVILGPGINIKRSPLCGRNFEYMSEDPIVSGVMGGALVRGIQSRGVGASLKHFAANNQETDRLRVSSDVDPRPLREIYLRGFQIAIEGAQPWTVMCSYNRINGAYASEDPWLLTSVLRDEWGFEGLVVSDWGAVNDRVAGVIAGLDLEMPSSGGATDAQLVAAVRDGSLDEAALDVVARRVLDLVQKAGRRPAIDGHLDIDAHHALAREVAGRAIVLLKNDDRVLPLAAEQKVAVIGAFAETPRFQGAGSSLINPTRLDSALDGFAEYAAEGAVTYAAGFALDGSGDADVLRAEAVAAASASEVAVVFLGIPASAESEGFDREHIDLPADQLALLDAVLVANPRTVVVLSNGGVVALPFADRVPAIIEGWLLGQAGGSATADVLYGAVNPSGRLAETIPVRLEDNPSYGNFPGEHGHVRYGEGLFVGYRWYDERGLDVTFPFGHGLSYTTFAYGDAQASVRSDGDMAVRIAVTNTGERAGRELVQVYTALQGSAVQRAPRELKAFQSVALEAGETREVELIVRRDDLAYWDVRVDRWVVEGGEYEVHVGASSRDIRSVASAEVAGDELVLPASLNSSITELLAHPVLGERMRALVAAAFGPGAESEGALQVLGSFPIGRLAAFPNVPATRDEIERMIAQA
# Experiment: Experiment 5-3: screening of additional glucosidases for deglycosylation with QS-18 in treated bark extract (80%) at pH 6 and 35 deg C
# Type: biochemical, Quillaja saponaria
# Settings: TBE 80% (QS-21 approx. 4 g/L), pH 6, 35 deg C; UV HPLC
# Description: Experiment 5-1 was repeated, replacing CBE with Treated Bark Extract (TBE) at pH 6. TBE was prepared from CBE by PVPP treatment and concentration, to provide TBE with a QS-21 concentration of approximately 4 g/L. TBE was adjusted to pH 6 by dropwise addition of 2M NaOH with stirring.
row,Molecule,Experiment 5-3 % conv
1,B1,<0.5%
2,B2,<0.5%
3,B3,<0.5%
4,B4,<0.5%
5,B5,<0.5%
6,B6,<0.5%

# Experiment: Experiment 5-1: screening of additional glucosidases for deglycosylation with purified QS-18 (0.04 mg/ml) at pH 7.5 and 30 deg C
# Type: biochemical, Quillaja saponaria
# Settings: pH 7.5, 30 degrees C, 18 hours, LCMS/MS
# Description: The 94 additional genes, together with positive control (DNA encoding SEQ ID No. 262) and negative control, were transformed, expressed, lysed and reacted in the same manner as described above for Experiment 4-1, except the reaction was incubated at 30 degrees C. for 18 hours.
# Samples were analysed by LCMS/MS according to the procedure in Experiment 4-1.
row,Molecule,Experiment 5-1 % conv
1,B1,29.4%
2,B2,24.5%
3,B3,23.5%
4,B4,23.1%
5,B5,22.7%
6,B6,21.3%

# Experiment: Experiment 5-2: screening of additional glucosidases for deglycosylation with QS-18 in crude bark extract (80%) at pH 6 and 35 deg C
# Type: biochemical, Quillaja saponaria
# Settings: CBE 80%, pH 6, 35 deg C, 18 hours; UV HPLC
# Method in brief: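 Clarified glucosidase lysate (prepared at pH 6) was incubated with pH 6-adjusted crude bark extract at 35 deg C with shaking for 18 hours. Reactions were quenched with MeCN containing 2% AcOH and hexanophenone, then analysed by UV HPLC.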
row,Molecule,Experiment 5-2 % conv
1,B1,<0.5%
2,B2,<0.5%
3,B3,<0.5%
4,B4,<0.5%
5,B5,<0.5%
6,B6,<0.5%
